Results as given in paper PMC6555819, “Comprehensive study of nuclear receptor DNA binding provides a revised framework for understanding receptor specificity”.

B1: NRC3_wobSeed29_DR1_T20C_o1 (dsDNA)
DNA 1: GCGCTTACGGGTCAAAGGTCATAGCATGAATAGAATGCGATTGACAGCGTAGAATGAAGG
DNA 2: CCTTCATTCTACGCTGTCAATCGCATTCTATTCATGCTATGACCTTTGACCCGTAAGCGC
B2: NRC3_wobSeed45_DR1_A20C_o1 (dsDNA)
DNA 1: GCTGTCAAAGTTCAAAGGTCACGTAAGTATCCACACGCGATTGACAGCGTAGAATGAAGG
DNA 2: CCTTCATTCTACGCTGTCAATCGCGTGTGGATACTTACGTGACCTTTGAACTTTGACAGC
B3: NRC3_wobSeed27_DR1_A12T_o1 (dsDNA)
DNA 1: GCACTCGGAGGTCAAAGGTCAGAGCTACGCCAGTGAGCGATTGACAGCGTAGAATGAAGG
DNA 2: CCTTCATTCTACGCTGTCAATCGCTCACTGGCGTAGCTCTGACCTTTGACCTCCGAGTGC
B4: NRC3_wobSeed37_DR1_G22T_o1 (dsDNA)
DNA 1: GCCGTCCAAGGTCAAAGGTCATTGAAGAGATGACGGGCGATTGACAGCGTAGAATGAAGG
DNA 2: CCTTCATTCTACGCTGTCAATCGCCCGTCATCTCTTCAATGACCTTTGACCTTGGACGGC
B5: NRC3_wobSeed42_DR1_C19T_o1 (dsDNA)
DNA 1: GCTATACAGGGTCAAAGGTCAGAGTACGAATGTCGAGCGATTGACAGCGTAGAATGAAGG
DNA 2: CCTTCATTCTACGCTGTCAATCGCTCGACATTCGTACTCTGACCTTTGACCCTGTATAGC
B6: NRC3_wobSeed74_DR3_T9A_o1 (dsDNA)
DNA 1: GCTCTAGTAGGTCACGGAGGTCACACACGACGGGTAGCGATTGACAGCGTAGAATGAAGG
DNA 2: CCTTCATTCTACGCTGTCAATCGCTACCCGTCGTGTGTGACCTCCGTGACCTACTAGAGC
B7: NRC3_random_hg19_478_o1 (dsDNA)
DNA 1: GCATCAGCCATTTGGTATGCAAGTAGATTAGAAGCCGCGATTGACAGCGTAGAATGAAGG
DNA 2: CCTTCATTCTACGCTGTCAATCGCGGCTTCTAATCTACTTGCATACCAAATGGCTGATGC
B8: NRC3_random_hg19_204_o1 (dsDNA)
DNA 1: GCGCCTGCATCTCCACATCCATGGAGTCCTGCTGAGGCGATTGACAGCGTAGAATGAAGG
DNA 2: CCTTCATTCTACGCTGTCAATCGCCTCAGCAGGACTCCATGGATGTGGAGATGCAGGCGC

Legend:
RARg:RXRa = RARg:RXRa (Homo sapiens, UniProt P13631;P19793 full;full); assay: no ligand; PBM; 270 nM : 90 nM RXRa; PBS pH 7.4, 2% milk, 0.02% Triton X-100, 1 mM DTT, BSA, 0.4 mg/ml salmon testes DNA; conditions: tags: His kept;His cleaved; copies: 1;1; label: surface-attached array probe
Method in brief: (§1)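 Probes were double-stranded and carried 34-nt variable regions with direct-repeat seeds, single-nucleotide variants, half-site ablations and random human genomic background sequences, printed on custom Agilent 4×180K protein-binding microarrays. Arrays were incubated 1 h with ligand-free nuclear receptor dimers in PBS pH 7.4, 2% milk, 0.02% Triton X-100, 1 mM DTT, 0.2 mg/mL BSA and 0.4 mg/ml salmon testes DNA. Antibodies against each partner (one per run) detected binding, and scanned fluorescence was regression-normalized. Binding z-scores use the random background probes as reference.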

RARa:RXRa = RARa:RXRa (Homo sapiens, UniProt P10276;P19793 full;full); assay: as above; conditions: tags: His kept;His cleaved; copies: 1;1; label: surface-attached array probe
Method in brief: as §1

LXRa:RXRa = LXRa:RXRa (Homo sapiens, UniProt Q13133;P19793 full;full); assay: as above; conditions: tags: His kept;His cleaved; copies: 1;1; label: surface-attached array probe
Sequence of LXRa:RXRa (Q13133 whole entry, chain 1 of 2): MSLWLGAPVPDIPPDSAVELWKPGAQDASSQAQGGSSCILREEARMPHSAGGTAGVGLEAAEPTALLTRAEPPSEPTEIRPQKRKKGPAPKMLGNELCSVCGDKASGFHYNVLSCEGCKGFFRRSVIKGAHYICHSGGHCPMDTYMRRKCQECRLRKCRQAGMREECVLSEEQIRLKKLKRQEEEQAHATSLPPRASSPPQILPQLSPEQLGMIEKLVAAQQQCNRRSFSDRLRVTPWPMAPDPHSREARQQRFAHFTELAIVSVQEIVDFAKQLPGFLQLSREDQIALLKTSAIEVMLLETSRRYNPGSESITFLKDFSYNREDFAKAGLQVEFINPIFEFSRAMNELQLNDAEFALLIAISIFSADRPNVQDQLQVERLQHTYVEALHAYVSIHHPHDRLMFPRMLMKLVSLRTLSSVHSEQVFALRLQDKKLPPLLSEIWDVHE
Sequence of LXRa:RXRa (P19793 whole entry, chain 2 of 2): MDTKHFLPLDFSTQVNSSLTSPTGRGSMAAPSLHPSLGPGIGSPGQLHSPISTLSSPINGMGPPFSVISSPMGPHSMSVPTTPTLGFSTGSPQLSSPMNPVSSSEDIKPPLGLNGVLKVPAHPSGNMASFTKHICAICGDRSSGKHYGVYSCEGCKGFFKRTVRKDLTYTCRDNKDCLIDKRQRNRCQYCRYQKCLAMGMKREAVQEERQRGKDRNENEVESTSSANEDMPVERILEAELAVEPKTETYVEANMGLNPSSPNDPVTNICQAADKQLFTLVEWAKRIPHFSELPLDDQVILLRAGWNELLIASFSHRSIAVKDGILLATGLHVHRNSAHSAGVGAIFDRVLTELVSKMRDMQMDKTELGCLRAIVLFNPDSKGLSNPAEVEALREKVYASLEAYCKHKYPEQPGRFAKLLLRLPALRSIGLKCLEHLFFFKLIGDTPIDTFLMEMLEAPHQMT
Method in brief: as §1

PPARa:RXRa = PPARa:RXRa (Homo sapiens, UniProt Q07869;P19793 full;full); assay: as above; conditions: tags: GST kept;His cleaved; copies: 1;1; label: surface-attached array probe
Method in brief: as §1

PXR:RXRa = PXR:RXRa (Homo sapiens, UniProt O75469;P19793 full;full); assay: as above; conditions: tags: His kept;His cleaved; copies: 1;1; label: surface-attached array probe
Sequence of PXR:RXRa (O75469 whole entry, chain 1 of 2): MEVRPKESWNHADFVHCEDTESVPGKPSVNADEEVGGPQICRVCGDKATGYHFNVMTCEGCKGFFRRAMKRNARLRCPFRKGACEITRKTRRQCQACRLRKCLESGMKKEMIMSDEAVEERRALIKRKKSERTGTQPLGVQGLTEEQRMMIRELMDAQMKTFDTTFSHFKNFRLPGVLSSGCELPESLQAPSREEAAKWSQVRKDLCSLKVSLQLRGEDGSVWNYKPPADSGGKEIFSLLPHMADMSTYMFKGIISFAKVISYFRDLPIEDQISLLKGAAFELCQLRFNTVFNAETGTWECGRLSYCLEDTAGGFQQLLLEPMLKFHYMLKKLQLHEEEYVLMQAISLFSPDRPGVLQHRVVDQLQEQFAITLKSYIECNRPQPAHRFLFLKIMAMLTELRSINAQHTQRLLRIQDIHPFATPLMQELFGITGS
Sequence of PXR:RXRa (P19793 whole entry, chain 2 of 2): as the sequence (P19793 whole entry, chain 2 of 2) above
Method in brief: as §1

FXR:RXRa = FXR:RXRa (Homo sapiens, UniProt Q96RI1;P19793 full;full); assay: as above; conditions: tags: His kept;His cleaved; copies: 1;1; label: surface-attached array probe
Method in brief: as §1

RARb:RXRa = RARb:RXRa (Homo sapiens, UniProt P10826;P19793 full;full); assay: as above; conditions: tags: His kept;His cleaved; copies: 1;1; label: surface-attached array probe
Method in brief: as §1

LXRb:RXRa = LXRb:RXRa (Homo sapiens, UniProt P55055;P19793 full;full); assay: as above; conditions: tags: His kept;His cleaved; copies: 1;1; label: surface-attached array probe
Sequence of LXRb:RXRa (P55055 whole entry, chain 1 of 2): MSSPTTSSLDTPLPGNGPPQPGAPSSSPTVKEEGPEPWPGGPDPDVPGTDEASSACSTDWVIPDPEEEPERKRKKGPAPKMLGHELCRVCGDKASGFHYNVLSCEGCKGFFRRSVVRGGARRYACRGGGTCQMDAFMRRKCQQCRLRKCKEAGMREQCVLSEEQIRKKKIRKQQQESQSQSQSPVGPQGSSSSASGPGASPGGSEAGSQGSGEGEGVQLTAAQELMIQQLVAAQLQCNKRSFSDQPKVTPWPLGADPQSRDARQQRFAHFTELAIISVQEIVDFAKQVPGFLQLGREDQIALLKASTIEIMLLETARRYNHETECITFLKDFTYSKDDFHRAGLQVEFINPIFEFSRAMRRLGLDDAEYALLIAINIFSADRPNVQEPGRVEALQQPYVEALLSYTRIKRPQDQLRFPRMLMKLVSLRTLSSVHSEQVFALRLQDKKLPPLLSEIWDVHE
Sequence of LXRb:RXRa (P19793 whole entry, chain 2 of 2): as the sequence (P19793 whole entry, chain 2 of 2) above
Method in brief: as §1

VDR:RXRa = VDR:RXRa (Homo sapiens, UniProt P11473;P19793 full;full); assay: as above; conditions: tags: His kept;His cleaved; copies: 1;1; label: surface-attached array probe
Sequence of VDR:RXRa (P11473 whole entry, chain 1 of 2): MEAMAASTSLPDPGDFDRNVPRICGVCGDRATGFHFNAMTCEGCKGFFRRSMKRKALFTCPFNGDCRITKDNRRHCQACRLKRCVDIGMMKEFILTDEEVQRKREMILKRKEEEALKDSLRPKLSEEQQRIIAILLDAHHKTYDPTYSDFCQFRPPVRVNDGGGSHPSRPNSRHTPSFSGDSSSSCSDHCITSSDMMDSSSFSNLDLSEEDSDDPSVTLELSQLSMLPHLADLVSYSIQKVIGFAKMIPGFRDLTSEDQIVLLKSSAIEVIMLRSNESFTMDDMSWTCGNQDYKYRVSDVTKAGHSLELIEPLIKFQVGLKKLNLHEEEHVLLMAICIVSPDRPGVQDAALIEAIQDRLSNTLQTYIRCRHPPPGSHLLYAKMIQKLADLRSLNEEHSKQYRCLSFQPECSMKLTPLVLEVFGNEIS
Sequence of VDR:RXRa (P19793 whole entry, chain 2 of 2): as the sequence (P19793 whole entry, chain 2 of 2) above
Method in brief: as §1

PPARg:RXRa = PPARg:RXRa (Homo sapiens, UniProt P37231;P19793 full;full); assay: no ligand; PBM; 180 nM : 90 nM RXRa; PBS pH 7.4, 2% milk, 0.02% Triton X-100, 1 mM DTT, BSA, 0.4 mg/ml salmon testes DNA; conditions: tags: His kept;His cleaved; copies: 1;1; label: surface-attached array probe
THRa:RXRa = THRa:RXRa (Homo sapiens, UniProt P10827;P19793 full;full); assay: no ligand; PBM; 90 nM : 90 nM RXRa; PBS pH 7.4, 2% milk, 0.02% Triton X-100, 1 mM DTT, BSA, 0.4 mg/ml salmon testes DNA; conditions: tags: His kept;His cleaved; copies: 1;1; label: surface-attached array probe
Sequence of THRa:RXRa (P10827 other isoform, or with tags, fused parts or gaps, chain 1 of 2): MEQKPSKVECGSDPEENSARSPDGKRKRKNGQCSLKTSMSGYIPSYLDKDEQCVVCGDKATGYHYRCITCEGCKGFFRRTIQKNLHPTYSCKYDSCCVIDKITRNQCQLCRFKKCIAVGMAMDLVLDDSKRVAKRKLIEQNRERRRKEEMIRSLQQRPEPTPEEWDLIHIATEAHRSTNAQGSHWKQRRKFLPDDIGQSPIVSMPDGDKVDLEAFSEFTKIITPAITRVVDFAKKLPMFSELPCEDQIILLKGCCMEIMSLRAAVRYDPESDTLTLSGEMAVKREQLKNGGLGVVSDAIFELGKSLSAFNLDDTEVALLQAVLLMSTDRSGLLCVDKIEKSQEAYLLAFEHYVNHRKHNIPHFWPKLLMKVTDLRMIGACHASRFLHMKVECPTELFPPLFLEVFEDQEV
Sequence of THRa:RXRa (P19793 whole entry, chain 2 of 2): as the sequence (P19793 whole entry, chain 2 of 2) above

RXRa = RXRa (Homo sapiens, UniProt P19793); assay: no ligand; PBM; 180 nM; PBS pH 7.4, 2% milk, 0.02% Triton X-100, 1 mM DTT, BSA, 0.4 mg/ml salmon testes DNA; conditions: tags: His cleaved; chain copies: 2; label: surface-attached array probe
Sequence of RXRa (P19793 whole entry): as the sequence (P19793 whole entry, chain 2 of 2) above

Row | Binder | binding signal (RARg:RXRa) | binding signal (RARa:RXRa) | binding signal (LXRa:RXRa) | binding signal (PPARa:RXRa) | binding signal (PXR:RXRa) | binding signal (FXR:RXRa) | binding signal (RARb:RXRa) | binding signal (LXRb:RXRa) | binding signal (VDR:RXRa) | binding signal (PPARg:RXRa) | binding signal (THRa:RXRa) | binding signal (RXRa)
1 | B1 | 9.01 PBM z-score against 500 random probes | 9.33 PBM z-score against 500 random probes | 7.26 PBM z-score against 500 random probes | 7.49 PBM z-score against 500 random probes | 7.5 PBM z-score against 500 random probes | 8.57 PBM z-score against 500 random probes | 5.71 PBM z-score against 500 random probes | 7.5 PBM z-score against 500 random probes | 7.18 PBM z-score against 500 random probes | 13.1 PBM z-score against 500 random probes | 4.82 PBM z-score against 500 random probes | 10.8 PBM z-score against 500 random probes
2 | B2 | 9.56 PBM z-score against 500 random probes | 9.47 PBM z-score against 500 random probes | 8.34 PBM z-score against 500 random probes | 7.56 PBM z-score against 500 random probes | 8.16 PBM z-score against 500 random probes | 9.44 PBM z-score against 500 random probes | 6.42 PBM z-score against 500 random probes | 7.9 PBM z-score against 500 random probes | 7.65 PBM z-score against 500 random probes | 11.8 PBM z-score against 500 random probes | 5.33 PBM z-score against 500 random probes | 11 PBM z-score against 500 random probes
3 | B3 | 9.09 PBM z-score against 500 random probes | 9.37 PBM z-score against 500 random probes | 7.5 PBM z-score against 500 random probes | 7.2 PBM z-score against 500 random probes | 7.52 PBM z-score against 500 random probes | 8.54 PBM z-score against 500 random probes | 5.85 PBM z-score against 500 random probes | 6.9 PBM z-score against 500 random probes | 7.02 PBM z-score against 500 random probes | 11.6 PBM z-score against 500 random probes | 4.83 PBM z-score against 500 random probes | 10.9 PBM z-score against 500 random probes
4 | B4 | 9.4 PBM z-score against 500 random probes | 9.26 PBM z-score against 500 random probes | 7.79 PBM z-score against 500 random probes |  | 7.7 PBM z-score against 500 random probes | 8.93 PBM z-score against 500 random probes |  | 7.46 PBM z-score against 500 random probes | 7.41 PBM z-score against 500 random probes | 12.1 PBM z-score against 500 random probes | 5.12 PBM z-score against 500 random probes | 11.1 PBM z-score against 500 random probes
5 | B5 | 8.67 PBM z-score against 500 random probes | 9.11 PBM z-score against 500 random probes | 7.52 PBM z-score against 500 random probes | 7.46 PBM z-score against 500 random probes | 7.29 PBM z-score against 500 random probes | 8.5 PBM z-score against 500 random probes | 5.62 PBM z-score against 500 random probes | 7.29 PBM z-score against 500 random probes | 7.15 PBM z-score against 500 random probes | 12.3 PBM z-score against 500 random probes | 4.83 PBM z-score against 500 random probes | 10.7 PBM z-score against 500 random probes
6 | B6 |  | 7.07 PBM z-score against 500 random probes |  |  | 6.39 PBM z-score against 500 random probes |  | 5.43 PBM z-score against 500 random probes |  | 7.91 PBM z-score against 500 random probes | 9.93 PBM z-score against 500 random probes | 4.93 PBM z-score against 500 random probes | 
7 | B7 |  | -0.34 PBM z-score against 500 random probes | -0.84 PBM z-score against 500 random probes | -0.63 PBM z-score against 500 random probes |  |  |  |  |  | 0.2 PBM z-score against 500 random probes | -0.66 PBM z-score against 500 random probes | 
8 | B8 |  | -0.76 PBM z-score against 500 random probes |  |  | -0.93 PBM z-score against 500 random probes |  |  |  |  | 0.07 PBM z-score against 500 random probes | -0.86 PBM z-score against 500 random probes | -0.59 PBM z-score against 500 random probes
